Experimental findings from IntAct's records for PubMed 17875931 are described below.

This experiment concerns the target itf2_human TCF4 (UniProt P15884).

itf2_human TCF4, sequence (P15884 whole entry): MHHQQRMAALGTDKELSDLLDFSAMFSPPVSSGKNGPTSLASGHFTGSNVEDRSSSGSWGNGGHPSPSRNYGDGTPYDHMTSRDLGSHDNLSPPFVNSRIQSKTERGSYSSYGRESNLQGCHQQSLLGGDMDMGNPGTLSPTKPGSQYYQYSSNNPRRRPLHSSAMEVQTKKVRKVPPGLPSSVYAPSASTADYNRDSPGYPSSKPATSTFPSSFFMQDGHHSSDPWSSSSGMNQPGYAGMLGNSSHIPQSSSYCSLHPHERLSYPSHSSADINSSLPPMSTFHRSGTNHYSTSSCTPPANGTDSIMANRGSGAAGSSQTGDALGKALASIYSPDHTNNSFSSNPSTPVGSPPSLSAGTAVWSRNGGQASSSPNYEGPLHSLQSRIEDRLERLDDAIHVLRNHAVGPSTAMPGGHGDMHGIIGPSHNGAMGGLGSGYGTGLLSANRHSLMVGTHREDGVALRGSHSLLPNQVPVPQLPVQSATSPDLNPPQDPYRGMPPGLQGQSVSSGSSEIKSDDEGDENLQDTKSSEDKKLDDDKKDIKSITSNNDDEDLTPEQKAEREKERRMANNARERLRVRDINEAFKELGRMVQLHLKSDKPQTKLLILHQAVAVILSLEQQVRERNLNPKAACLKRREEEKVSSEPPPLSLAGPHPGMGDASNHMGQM
Transcription factor SOX-17 (Mus musculus), Q61473 G103R, sequence (Q61473 whole entry G103R): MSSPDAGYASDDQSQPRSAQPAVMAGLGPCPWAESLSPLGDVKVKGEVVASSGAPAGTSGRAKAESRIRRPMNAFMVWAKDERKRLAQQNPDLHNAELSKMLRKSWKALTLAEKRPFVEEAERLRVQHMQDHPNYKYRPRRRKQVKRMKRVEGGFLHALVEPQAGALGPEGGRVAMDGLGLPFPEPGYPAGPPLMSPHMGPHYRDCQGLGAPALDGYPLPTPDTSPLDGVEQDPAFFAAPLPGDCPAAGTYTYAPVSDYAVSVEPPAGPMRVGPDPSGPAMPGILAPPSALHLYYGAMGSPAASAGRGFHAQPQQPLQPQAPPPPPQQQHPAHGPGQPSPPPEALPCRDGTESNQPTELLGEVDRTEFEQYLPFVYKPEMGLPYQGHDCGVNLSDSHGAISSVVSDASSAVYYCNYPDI

For the substance “Transcription factor SOX-17 (Mus musculus), Q61473 G103R”, the “effect of a mutation on the interaction” value was “disrupting interaction”.
